The record followed here is US20250326813A1 (ELPIS BIOPHARMACEUTICALS, published 2025).

T1: human IL2Rα Fc fusion protein (human, UniProt P01589 22-213, limits assumed)
T1 construct: also called CD25; not shown: Fc part
T1 sequence (looked up): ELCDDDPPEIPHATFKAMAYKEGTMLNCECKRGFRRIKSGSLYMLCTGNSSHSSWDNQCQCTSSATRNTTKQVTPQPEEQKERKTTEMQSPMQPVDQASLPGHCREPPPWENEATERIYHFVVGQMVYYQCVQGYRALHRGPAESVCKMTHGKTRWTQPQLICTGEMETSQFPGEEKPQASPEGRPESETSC

T2: human IL2Rβ Fc fusion protein (human, UniProt P14784 27-239)
T2 construct: also called ILR2β; CD122; not shown: Fc part
T2 sequence (looked up): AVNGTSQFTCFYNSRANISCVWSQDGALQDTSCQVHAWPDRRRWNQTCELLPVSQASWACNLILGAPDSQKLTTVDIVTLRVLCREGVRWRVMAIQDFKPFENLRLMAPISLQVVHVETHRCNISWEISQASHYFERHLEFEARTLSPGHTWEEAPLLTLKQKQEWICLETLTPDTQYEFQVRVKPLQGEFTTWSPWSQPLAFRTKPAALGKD

B1: EP585 (clone 2021EP16-C03), E. coli-produced (ligand)
chain: APASSSTKKTQLQLEHLLLDLQMILNGINNYKNPKLTRMLTFKFYMPKKATELKHLQCLEEELKPLEEVLNLAQSKNFHLSPPDLIANMAVYFVELKGSETTFMCEYADETATIVEFLNRWITFSQSIISTLT
B2: EP671, EP575 back-mutation clone (ligand)
chain: APASSSTKKTQLQLEHLLLDLQMILNGINNYKNPLLTDMLTRKFYMPKKATELKHLQCLEEELKPLEEVLNLAQSKNFHLRPKGLIGDINNIVLALKGSETTFMCEYADETATIVEFLNRWITFSQSIISTLT
notes: Mammalian-produced, His-tagged
B3: EP658, EP575 back-mutation clone (ligand)
chain: B2 chain with K83R, G87S, N90S
notes: as for B2
B4: EP661, EP575 back-mutation clone (ligand)
chain: B2 chain with G87S, D88N, N90S
notes: as for B2
B5: EP669, EP575 back-mutation clone (ligand)
chain: B2 chain with G87S, N90S
notes: as for B2
B6: EP675, EP575 back-mutation clone (ligand)
chain: B2 chain with P82N, G87S, D88N, N90S
notes: as for B2
B7: EP662, EP575 back-mutation clone (ligand)
chain: B2 chain with G87S
notes: as for B2
B8: EP665, EP575 back-mutation clone (ligand)
chain: B2 chain with P82N, K83R, G87S
notes: as for B2
B9: EP668, EP575 back-mutation clone (ligand)
chain: B2 chain with K83R, N90S
notes: as for B2
B10: EP575, mammalian cell-produced (ligand)
chain: B2 chain with P82N, L85I, I86L, N90S
notes: also called 2021EP16-D09
B11: EP576, mammalian cell-produced, with F35L, R38D and F42R (ligand)
chain: APASSSTKKTQLQLEHLLLDLQMILNGINNYKNPLLTDMLTRKFYMPKKATELKHLQCLEEELKPLEEVLNLAQSKNFHLLPRNKISKTKVMVHELKGSETTFMCEYADETATIVEFLNRWITFSQSIISTLT
notes: His-Flag tag not in the parts; also called 2021EP21-C10
B12: EP580, mammalian cell-produced, with F35L, R38D and F42R (ligand)
chain: APASSSTKKTQLQLEHLLLDLQMILNGINNYKNPLLTDMLTRKFYMPKKATELKHLQCLEEELKPLEEVLNLAQSKNFHLRIRDLLNKINELHRYIKGSETTFMCEYADETATIVEFLNRWITFSQSIISTLT
notes: His-Flag tag not in the parts; also called 2021EP16-H09
B13: EP573, mammalian cell-produced, with F35L, R38D and F42R (ligand)
chain: B2 chain with R81N, P82R, K83T, G84D, I86V, I89V, N91A, I92T, V93I, L94K
notes: His-Flag tag not in the parts; also called 2021EP16-E02
B14: EP567, mammalian cell-produced (ligand)
chain: APASSSTKKTQLQLEHLLLDLQMILNGINNYKNPLLTDMLTRKFYMPKKATELKHLQCLEEELKPLEEVLNLAQSKNFHLSLREPIGNIVTSVRELKGSETTFMCEYADETATIVEFLNRWITFSQSIISTLT
notes: also called 2021EP21-C04
B15: EP581, mammalian cell-produced (ligand)
chain: APASSSTKKTQLQLEHLLLDLQMILNGINNYKNPLLTDMLTRKFYMPKKATELKHLQCLEEELKPLEEVLNLAQSKNFHLRSREVVSRIDAIILELKGSETTFMCEYADETATIVEFLNRWITFSQSIISTLT
notes: also called 2021EP16-C10

Positions count from the first letter of the chain named. In names and notes the source's numbering stands.

For the first assay, the target named is T1, human IL2Rα Fc fusion protein. The experiment in a line: SPR (Biacore T200), receptor captured on Protein A chip, IL2 at 100 nM and 20 nM. Here is the method:
The assay was run with Biacore T200 control software version 2.0. For each cycle, 1 μg/mL of human IL2Rβ or IL2Rα was captured for 60 seconds at flow rate of 10 μL/min on flow cell 2 in 1× HBSP buffer on Protein A sensor chip. 100 nM and 20 nM of HIS tag purified engineered IL2 mutant was injected onto both reference flow cell 1 and IL2Rβ or IL2Rα captured flow cell 2 for 150 seconds at flow rate of 30 μL/min followed by washing for 300 seconds. The flow cells were then regenerated with Glycine pH 2 for 60 seconds at a flow rate of 30 μL/mins. The kinetics data was analyzed with Biacore T200 evaluation software 3000. The specific binding response unit was derived from subtraction of binding to reference flow cell 1 from target flow cell 2.
In general terms: In SPR one partner is held on a chip, and binding of the other changes the refractive index at the surface.
Broadly, the Kd is the constant that tells how readily two partners part at equilibrium. Lower therefore signals higher affinity. Molecule B1 had a Kd of 4.26 µM.

For another assay the target is unchanged. The experiment in a line: ELISA on coated receptor-Fc, anti-His detection, single point 10 µM. How it is done:
(§1) Back-mutations were characterized for their binding activities to IL2Rβ and IL2Rα receptors by ELISA. Briefly, 384 well plate was immobilized with human IL2Rα and IL2Rβ Fc fusion proteins at a final concentration of 2 μg/mL in 1× PBS in total volume of 25 μL per well. The plate was incubated overnight at 4° C. and blocked with 80 μL of superblock per well for 1 hour. […] The IL2 mutant binding was detected by adding 25 μL of anti-His HRP diluted at 1:5000 in 1× PBST. In between each step, the plate was washed three times with 1× PBST using a plate washer. […] The plate was then developed with 25 μL of TMB substrate for five minutes and stopped by adding 25 μl of 2N sulfuric acid. The plate was read at OD450 nm Biotek plate reader (Table 6) and the data was analyzed with Prism 8.1 software to generate bar graph (FIG. 5).
(ELISA stands for enzyme-linked immunosorbent assay.)
Consider B2, for which the “Average OD (450 nm)” value turned out to be 0.082 OD450.
Turning to B3, the “Average OD (450 nm)” value was 0.12 OD450.
In the case of B4, the “Average OD (450 nm)” value came out at 0.11 OD450.
For the molecule B5, the “Average OD (450 nm)” value is 0.082 OD450.
As to B6, the “Average OD (450 nm)” value is 0.084 OD450.
With B7, the “Average OD (450 nm)” value is 0.083 OD450.
Consider B8, for which the “Average OD (450 nm)” value was determined as 0.077 OD450.
Take B9: the “Average OD (450 nm)” value stood at 0.113 OD450.
B10: the “Average OD (450 nm)” value is 0.113 OD450.

The target of another assay is T2, human IL2Rβ Fc fusion protein. The assay is described as above. How it is done:
as §1
Consider B2, for which the “Average OD (450 nm)” value was determined as 0.09 OD450.
For B3, the “Average OD (450 nm)” value was found to be 0.87 OD450.
Take B4: the “Average OD (450 nm)” value was 0.501 OD450.
As for B5, the “Average OD (450 nm)” value stood at 0.082 OD450.
For the molecule B6, the “Average OD (450 nm)” value came to 0.082 OD450.
Consider B7, for which the “Average OD (450 nm)” value came out at 0.083 OD450.
Consider B8, for which the “Average OD (450 nm)” value came to 0.096 OD450.
As for B9, the “Average OD (450 nm)” value amounted to 0.17 OD450.
On to B10, for which the “Average OD (450 nm)” value came out at 0.093 OD450.

For the next assay the target is unchanged. Kind of assay: ELISA: human IL2Rβ Fc fusion coated at 2 µg/mL, purified His-tagged IL2 titrated from 1 µM in 5x steps, anti-His HRP, OD450. How it is done: (§2) Mammalian cell-produced agonists were characterized for their binding activities to respective IL2Rβ and IL2Rα receptors by ELISA. Briefly, 384 well plate was immobilized with human IL2Rα and IL2Rβ Fc fusion proteins at a final concentration of 2 μg/mL in 1× PBS in total volume of 25 μL per well. The plate was incubated overnight at 4° C. and blocked with 80 μL of superblock per well for 1 hour. The purified clones were added to IL2Rα or IL-2Rβ wells in parallel in duplicates as a titration, with the highest concentration of 1 μM, followed by a 10 point 5× serial dilution of the clones. The binding activity was detected by adding 25 μL of anti-His HRP diluted at 1:5000 in 1× PBST. In between each step, the plate was washed three times with 1× PBST using a plate washer. The plate was then developed with 25 μL of TMB substrate for five minutes and stopped by adding 25 μL of 2N sulfuric acid. The plate was read at OD450 nm Biotek plate reader and the bar graph at 1 μM of IL2 was generated with Prism 8.1 software (FIG. 2).
Take B11: the binding result was “no binding (tested: 1000 nM)”.
Take B12: the binding result is on record as “no binding (tested: 1000 nM)”.

Another assay addresses T1, human IL2Rα Fc fusion protein. Kind of assay: ELISA on coated receptor-Fc, anti-His detection. Here is the method:
as §2
Turning to B12, the binding result was “no binding (tested: OD450 < 0.1; 1 µM)”.
Turning to B13, the binding result is given as “no binding (tested: OD450 < 0.1; 1 µM)”.

For a further assay the target is unchanged. Kind of assay: ELISA on coated receptor-Fc, anti-His detection; grade by OD450 (weak: 0.3-0.7). How it is done: as §2
Consider B14, for which the OD450 fell in the range of 0.3 to 0.7 od.
Same read-out and setting: then B15, with 0.3 to 0.7 od.

The target of the next assay is T2, human IL2Rβ Fc fusion protein. The assay is described as above. How it is done: as §2
B14: the OD450 is 0.3 to 0.7 od.
B15 returned an OD450 of 0.3 to 0.7 od.
Still for that read-out and setting: with B10 the figure was 0.3 to 0.7 od; with B13, 0.3 to 0.7 od.

In the next assay the target is T1, human IL2Rα Fc fusion protein. Kind of assay: ELISA: human IL2Rα Fc fusion coated at 2 µg/mL, purified His-tagged IL2 titrated from 1 µM in 5x steps, anti-His HRP, OD450. How it is done:
as §2
Take B11: the binding result is “no binding (tested: 1000 nM)”.
Turning to B10, the binding result is given as “no binding (tested: 1000 nM)”.

A further assay shares this target. The experiment in a line: ELISA, single concentration, anti-flag detection, E. coli-produced clone. How it is done:
(§3) Supernatants containing engineered IL2 mutants were assessed with sandwich ELISA assay to screen for IL2Rα binding. Briefly, 96-well plate was immobilized with human Fc and human IL2Rα, respectively, at a final concentration of 2 μg/mL in 1× PBS in total volume of 50 μL per well. The plate was incubated overnight at 4° C. followed by blocking with 200 μL of superblock per well for 1 hour. 100 μl of supernatant was added to both Fc and IL2Rα immobilized wells and incubated for 1 hour with shaking. The engineered IL2 mutant binding was detected by adding 50 μL of anti-Flag HRP diluted at 1:5000 in 1× PBST. In between each step, the plate was washed three times with 1× PBST in a plate washer. The plate was then developed with 50 μL of TMB substrate for five minutes and stopped by adding 50 μL of 2N sulfuric acid. The plate was read at OD450 nm using a Biotek plate reader and the binding and selectivity was analyzed.
as §3, with “Single clones were next screened for IL2Rβ binding. IL2Rβ binding screening ELISA was developed for the identification of individual” for “Supernatants containing”, “mutant.” for “mutants were assessed with sandwich ELISA assay to screen for IL2Rα binding.”, “IL2Rβ,” for “IL2Rα,”, “IL2Rβ” for “IL2Rα”
(§4) To further triage, the engineered IL2 clones with unique sequences were produced in E. coli. In short, the glycerol stock of each engineered agonist clone was inoculated into TB medium for overnight growth. The next day, cells from the overnight culture were inoculated into TB medium and grown to a cell density of OD₆₀₀ between 0.6-0.8. IPTG was added to a final concentration of 1 mM to induce the expression during culture at 30° C. overnight. The supernatant was collected by centrifugation.
Take B1: the OD450 nm was 0.614 OD450.

For a further assay, the target named is T2, human IL2Rβ Fc fusion protein. The description is as above. Here is the method:
as §3
as §3, with “Single clones were next screened for IL2Rβ binding. IL2Rβ binding screening ELISA was developed for the identification of individual” for “Supernatants containing”, “mutant.” for “mutants were assessed with sandwich ELISA assay to screen for IL2Rα binding.”, “IL2Rβ,” for “IL2Rα,”, “IL2Rβ” for “IL2Rα”
as §4
With B1, the OD450 nm came out at 0.583 OD450.
